# Source: patent USRE48558 (Genentech, dated 2021)
# B1: huMA79b graft variant SEQ ID NO: 17 (Fab, name in Kabat numbering, V domains shown)
# VH: EVQLVESGGGLVQPGGSLRLSCAASGYTFSSYWIEWVRQAPGKGLEWVGEILPGGGDTNYNEIFKGRFTISADTSKNTAYLQMNSLRAEDTAVYYCTRRVPVYFDYWGQGTLVTVSS
# VL: DIQMTQSPSSLSASVGDRVTITCKASKSVDYDGDSFLNWYQQKPGKAPKLLIYAASNLESGVPSRFSGSGSGTDFTLTISSLQPEDFATYYCQQSNEDPLTFGQGTKVEIKR
# notes: Fab on phage; rest as huMA79b graft; also called SPL-2 mutation
# B2: huMA79b graft variant SEQ ID NO: 34 (Fab, name in Kabat numbering, V domains shown)
# VH: EVQLVESGGGLVQPGGSLRLSCAASGYTFSSYWIEWVRQAPGKGLEWVGEILPGGGDTNYNEIFKGRFTISADTSKNTAYLQMNSLRAEDTAVYYCTRRVPVYFDYWGQGTLVTVSS
# VL: DIQMTQSPSSLSASVGDRVTITCKASQSVDYDGDSFLNWYQQKPGKAPKLLIYAGSKLLRGVPSRFSGSGSGTDFTLTISSLQPEDFATYYCQQSNEDPLTFGQGTKVEIKR
# notes: Fab on phage; rest as huMA79b graft
# B3: huMA79b graft variant SEQ ID NO: 33 (Fab, name in Kabat numbering, V domains shown)
# VH: EVQLVESGGGLVQPGGSLRLSCAASGYTFSSYWIEWVRQAPGKGLEWVGEILPGGGDTNYNEIFKGRFTISADTSKNTAYLQMNSLRAEDTAVYYCTRRVPVYFDYWGQGTLVTVSS
# VL: DIQMTQSPSSLSASVGDRVTITCKASQSVDYDGDSFLNWYQQKPGKAPKLLIYASRYLSRGVPSRFSGSGSGTDFTLTISSLQPEDFATYYCQQSNEDPLTFGQGTKVEIKR
# notes: as for B2
# B4: huMA79b graft variant SEQ ID NO: 24 (Fab, name in Kabat numbering, V domains shown)
# VH: EVQLVESGGGLVQPGGSLRLSCAASGYTFSSYWIEWVRQAPGKGLEWVGEILPGGGDTNYNEIFKGRFTISADTSKNTAYLQMNSLRAEDTAVYYCTRRVPVYFDYWGQGTLVTVSS
# VL: DIQMTQSPSSLSASVGDRVTITCKASQSVDYDGDSFLNWYQQKPGKAPKLLIYAARKLGNGVPSRFSGSGSGTDFTLTISSLQPEDFATYYCQQSNEDPLTFGQGTKVEIKR
# notes: as for B2
# B5: huMA79b graft variant SEQ ID NO: 21 (Fab, name in Kabat numbering, V domains shown)
# VH: EVQLVESGGGLVQPGGSLRLSCAASGYTFSSYWIEWVRQAPGKGLEWVGEILPGGGDTNYNEIFKGRFTISADTSKNTAYLQMNSLRAEDTAVYYCTRRVPVYFDYWGQGTLVTVSS
# VL: DIQMTQSPSSLSASVGDRVTITCKASQSVDYDGDSFLNWYQQKPGKAPKLLIYAASNLESGVPSRFSGSGSGTDFTLTISSLQPEDFATYYCQQSNKDPLTFGQGTKVEIKR
# notes: as for B2
# B6: huMA79b graft variant SEQ ID NO: 19 (Fab, name in Kabat numbering, V domains shown)
# VH: EVQLVESGGGLVQPGGSLRLSCAASGYTFSSYWIEWVRQAPGKGLEWVGEILPGGGDTNYNEIFKGRFTISADTSKNTAYLQMNSLRAEDTAVYYCTRRVPVYFDYWGQGTLVTVSS
# VL: DIQMTQSPSSLSASVGDRVTITCKASQSVDYDGDSFLNWYQQKPGKAPKLLIYAASNLKSGVPSRFSGSGSGTDFTLTISSLQPEDFATYYCQQSNEDPLTFGQGTKVEIKR
# notes: as for B2
# B7: huMA79b graft variant SEQ ID NO: 18 (Fab, name in Kabat numbering, V domains shown)
# VH: EVQLVESGGGLVQPGGSLRLSCAASGYTFSSYWIEWVRQAPGKGLEWVGEILPGGGDTNYNEIFKGRFTISADTSKNTAYLQMNSLRAEDTAVYYCTRRVPVYFDYWGQGTLVTVSS
# VL: DIQMTQSPSSLSASVGDRVTITCKASQSVDYDGDSFLNWYQQKPGKAPKLLIYAASNRESGVPSRFSGSGSGTDFTLTISSLQPEDFATYYCQQSNEDPLTFGQGTKVEIKR
# notes: as for B2
# B8: huMA79b graft variant SEQ ID NO: 49 (Fab, name in Kabat numbering, V domains shown)
# VH: EVQLVESGGGLVQPGGSLRLSCAASGYTFSSYWIEWVRQAPGKGLEWVGEILPGGGDTNYNEIFKGRFTISADTSKNTAYLQMNSLRAEDTAVYYCTRRVPVYFDYWGQGTLVTVSS
# VL: DIQMTQSPSSLSASVGDRVTITCKASQSVDYDGDSFLNWYQQKPGKAPKLLIYAASNLESGVPSRFSGSGSGTDFTLTISSLQPEDFATYYCQQSNDDPLTFGQGTKVEIKR
# notes: as for B2
# B9: huMA79b graft variant SEQ ID NO: 32 (Fab, name in Kabat numbering, V domains shown)
# VH: EVQLVESGGGLVQPGGSLRLSCAASGYTFSSYWIEWVRQAPGKGLEWVGEILPGGGDTNYNEIFKGRFTISADTSKNTAYLQMNSLRAEDTAVYYCTRRVPVYFDYWGQGTLVTVSS
# VL: DIQMTQSPSSLSASVGDRVTITCKASQSVDYDGDSFLNWYQQKPGKAPKLLIYAARHLKRGVPSRFSGSGSGTDFTLTISSLQPEDFATYYCQQSNEDPLTFGQGTKVEIKR
# notes: as for B2
# B10: huMA79b graft variant SEQ ID NO: 20 (Fab, name in Kabat numbering, V domains shown)
# VH: EVQLVESGGGLVQPGGSLRLSCAASGYTFSSYWIEWVRQAPGKGLEWVGEILPGGGDTNYNEIFKGRFTISADTSKNTAYLQMNSLRAEDTAVYYCTRRVPVYFDYWGQGTLVTVSS
# VL: DIQMTQSPSSLSASVGDRVTITCKASQSVDYDGDSFLNWYQQKPGKAPKLLIYAASNLESGVPSRFSGSGSGTDFTLTISSLQPEDFATYYCQQSNSDPLTFGQGTKVEIKR
# notes: Fab on phage; rest as huMA79b graft; also called SPL-5 mutation
# B11: huMA79b graft variant SEQ ID NO: 31 (Fab, name in Kabat numbering, V domains shown)
# VH: EVQLVESGGGLVQPGGSLRLSCAASGYTFSSYWIEWVRQAPGKGLEWVGEILPGGGDTNYNEIFKGRFTISADTSKNTAYLQMNSLRAEDTAVYYCTRRVPVYFDYWGQGTLVTVSS
# VL: DIQMTQSPSSLSASVGDRVTITCKASQSVDYDGDSFLNWYQQKPGKAPKLLIYAARKLGSGVPSRFSGSGSGTDFTLTISSLQPEDFATYYCQQSNEDPLTFGQGTKVEIKR
# notes: Fab on phage; rest as huMA79b graft; also called L2-38 mutation
# B12: huMA79b graft variant SEQ ID NO: 30 (Fab, name in Kabat numbering, V domains shown)
# VH: EVQLVESGGGLVQPGGSLRLSCAASGYTFSSYWIEWVRQAPGKGLEWVGEILPGGGDTNYNEIFKGRFTISADTSKNTAYLQMNSLRAEDTAVYYCTRRVPVYFDYWGQGTLVTVSS
# VL: DIQMTQSPSSLSASVGDRVTITCKASQSVDYDGDSFLNWYQQKPGKAPKLLIYAARKLRSGVPSRFSGSGSGTDFTLTISSLQPEDFATYYCQQSNEDPLTFGQGTKVEIKR
# notes: as for B2
# B13: huMA79b graft variant SEQ ID NO: 36 (Fab, name in Kabat numbering, V domains shown)
# VH: EVQLVESGGGLVQPGGSLRLSCAASGYTFSSYWIEWVRQAPGKGLEWVGEILPGGGDTNYNEIFKGRFTISADTSKNTAYLQMNSLRAEDTAVYYCTRRVPVYFDYWGQGTLVTVSS
# VL: DIQMTQSPSSLSASVGDRVTITCKASQSVDYDGDSFLNWYQQKPGKAPKLLIYAASKLGSGVPSRFSGSGSGTDFTLTISSLQPEDFATYYCQQSNEDPLTFGQGTKVEIKR
# notes: as for B2
# B14: huMA79b graft variant SEQ ID NO: 50 (Fab, name in Kabat numbering, V domains shown)
# VH: EVQLVESGGGLVQPGGSLRLSCAASGYTFSSYWIEWVRQAPGKGLEWVGEILPGGGDTNYNEIFKGRFTISADTSKNTAYLQMNSLRAEDTAVYYCTRRVPVYFDYWGQGTLVTVSS
# VL: DIQMTQSPSSLSASVGDRVTITCKASQSVDYDGDSFLNWYQQKPGKAPKLLIYAASNLESGVPSRFSGSGSGTDFTLTISSLQPEDFATYYCQQSNLDPLTFGQGTKVEIKR
# notes: as for B2
# B15: huMA79b graft variant SEQ ID NO: 25 (Fab, name in Kabat numbering, V domains shown)
# VH: EVQLVESGGGLVQPGGSLRLSCAASGYTFSSYWIEWVRQAPGKGLEWVGEILPGGGDTNYNEIFKGRFTISADTSKNTAYLQMNSLRAEDTAVYYCTRRVPVYFDYWGQGTLVTVSS
# VL: DIQMTQSPSSLSASVGDRVTITCKASQSVDYDGDSFLNWYQQKPGKAPKLLIYAARKLKRGVPSRFSGSGSGTDFTLTISSLQPEDFATYYCQQSNEDPLTFGQGTKVEIKR
# notes: as for B2
# B16: huMA79b graft variant SEQ ID NO: 27 (Fab, name in Kabat numbering, V domains shown)
# VH: EVQLVESGGGLVQPGGSLRLSCAASGYTFSSYWIEWVRQAPGKGLEWVGEILPGGGDTNYNEIFKGRFTISADTSKNTAYLQMNSLRAEDTAVYYCTRRVPVYFDYWGQGTLVTVSS
# VL: DIQMTQSPSSLSASVGDRVTITCKASQSVDYDGDSFLNWYQQKPGKAPKLLIYAARKLKSGVPSRFSGSGSGTDFTLTISSLQPEDFATYYCQQSNEDPLTFGQGTKVEIKR
# notes: as for B2
# B17: huMA79b graft variant SEQ ID NO: 35 (Fab, name in Kabat numbering, V domains shown)
# VH: EVQLVESGGGLVQPGGSLRLSCAASGYTFSSYWIEWVRQAPGKGLEWVGEILPGGGDTNYNEIFKGRFTISADTSKNTAYLQMNSLRAEDTAVYYCTRRVPVYFDYWGQGTLVTVSS
# VL: DIQMTQSPSSLSASVGDRVTITCKASQSVDYDGDSFLNWYQQKPGKAPKLLIYAASNRKSGVPSRFSGSGSGTDFTLTISSLQPEDFATYYCQQSNEDPLTFGQGTKVEIKR
# notes: as for B2
# B18: huMA79b graft variant SEQ ID NO: 29 (Fab, name in Kabat numbering, V domains shown)
# VH: EVQLVESGGGLVQPGGSLRLSCAASGYTFSSYWIEWVRQAPGKGLEWVGEILPGGGDTNYNEIFKGRFTISADTSKNTAYLQMNSLRAEDTAVYYCTRRVPVYFDYWGQGTLVTVSS
# VL: DIQMTQSPSSLSASVGDRVTITCKASQSVDYDGDSFLNWYQQKPGKAPKLLIYAAGILARGVPSRFSGSGSGTDFTLTISSLQPEDFATYYCQQSNEDPLTFGQGTKVEIKR
# notes: as for B2
# B19: huMA79b graft variant SEQ ID NO: 28 (Fab, name in Kabat numbering, V domains shown)
# VH: EVQLVESGGGLVQPGGSLRLSCAASGYTFSSYWIEWVRQAPGKGLEWVGEILPGGGDTNYNEIFKGRFTISADTSKNTAYLQMNSLRAEDTAVYYCTRRVPVYFDYWGQGTLVTVSS
# VL: DIQMTQSPSSLSASVGDRVTITCKASQSVDYDGDSFLNWYQQKPGKAPKLLIYAARKLASGVPSRFSGSGSGTDFTLTISSLQPEDFATYYCQQSNEDPLTFGQGTKVEIKR
# notes: as for B2
# B20: huMA79b graft variant SEQ ID NO: 26 (Fab, name in Kabat numbering, V domains shown)
# VH: EVQLVESGGGLVQPGGSLRLSCAASGYTFSSYWIEWVRQAPGKGLEWVGEILPGGGDTNYNEIFKGRFTISADTSKNTAYLQMNSLRAEDTAVYYCTRRVPVYFDYWGQGTLVTVSS
# VL: DIQMTQSPSSLSASVGDRVTITCKASQSVDYDGDSFLNWYQQKPGKAPKLLIYAARYLKRGVPSRFSGSGSGTDFTLTISSLQPEDFATYYCQQSNEDPLTFGQGTKVEIKR
# notes: Fab on phage; rest as huMA79b graft; also called L2-29 mutation
# B21: huMA79b graft variant SEQ ID NO: 23 (Fab, name in Kabat numbering, V domains shown)
# VH: EVQLVESGGGLVQPGGSLRLSCAASGYTFSSYWIEWVRQAPGKGLEWVGEILPGGGDTNYNEIFKGRFTISADTSKNTAYLQMNSLRAEDTAVYYCTRRVPVYFDYWGQGTLVTVSS
# VL: DIQMTQSPSSLSASVGDRVTITCKASQSVDYDGDSFLNWYQQKPGKAPKLLIYAASRLESGVPSRFSGSGSGTDFTLTISSLQPEDFATYYCQQSNEDPLTFGQGTKVEIKR
# notes: as for B2
# Biological target: T1, extracellular domain of human CD79b (human, UniProt P40259 29-159)
# T1 construct: also called huCD79becd; huCD79b-ecd
# T1 sequence: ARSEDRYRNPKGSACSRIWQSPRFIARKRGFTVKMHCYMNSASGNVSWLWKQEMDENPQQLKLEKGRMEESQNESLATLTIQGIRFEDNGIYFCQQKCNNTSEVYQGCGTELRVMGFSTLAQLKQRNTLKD
# Assay: phage selection, Fab on phage, plate-bound huCD79becd
row,Binder,binding result
1,B1,binds
2,B2,binds
3,B3,binds
4,B4,binds
5,B5,binds
6,B6,binds
7,B7,binds
8,B8,binds
9,B9,binds
10,B10,binds
11,B11,binds
12,B12,binds
13,B13,binds
14,B14,binds
15,B15,binds
16,B16,binds
17,B17,binds
18,B18,binds
19,B19,binds
20,B20,binds
21,B21,binds
